Experimental data from doi:10.1101/495762 (bioRxiv, 2018).
Substitutions are numbered along the chain they refer to. Names may count otherwise. Each block holds one binder with its values, some of them ahead of it.

Tests used:
Assay in all cases: cross-linking
Smc3(R1222C) = molecular target: T1, Smc3(R1222C) (S. cerevisiae, UniProt P47037 1-1230, R1222C)
T1 sequence (looked up): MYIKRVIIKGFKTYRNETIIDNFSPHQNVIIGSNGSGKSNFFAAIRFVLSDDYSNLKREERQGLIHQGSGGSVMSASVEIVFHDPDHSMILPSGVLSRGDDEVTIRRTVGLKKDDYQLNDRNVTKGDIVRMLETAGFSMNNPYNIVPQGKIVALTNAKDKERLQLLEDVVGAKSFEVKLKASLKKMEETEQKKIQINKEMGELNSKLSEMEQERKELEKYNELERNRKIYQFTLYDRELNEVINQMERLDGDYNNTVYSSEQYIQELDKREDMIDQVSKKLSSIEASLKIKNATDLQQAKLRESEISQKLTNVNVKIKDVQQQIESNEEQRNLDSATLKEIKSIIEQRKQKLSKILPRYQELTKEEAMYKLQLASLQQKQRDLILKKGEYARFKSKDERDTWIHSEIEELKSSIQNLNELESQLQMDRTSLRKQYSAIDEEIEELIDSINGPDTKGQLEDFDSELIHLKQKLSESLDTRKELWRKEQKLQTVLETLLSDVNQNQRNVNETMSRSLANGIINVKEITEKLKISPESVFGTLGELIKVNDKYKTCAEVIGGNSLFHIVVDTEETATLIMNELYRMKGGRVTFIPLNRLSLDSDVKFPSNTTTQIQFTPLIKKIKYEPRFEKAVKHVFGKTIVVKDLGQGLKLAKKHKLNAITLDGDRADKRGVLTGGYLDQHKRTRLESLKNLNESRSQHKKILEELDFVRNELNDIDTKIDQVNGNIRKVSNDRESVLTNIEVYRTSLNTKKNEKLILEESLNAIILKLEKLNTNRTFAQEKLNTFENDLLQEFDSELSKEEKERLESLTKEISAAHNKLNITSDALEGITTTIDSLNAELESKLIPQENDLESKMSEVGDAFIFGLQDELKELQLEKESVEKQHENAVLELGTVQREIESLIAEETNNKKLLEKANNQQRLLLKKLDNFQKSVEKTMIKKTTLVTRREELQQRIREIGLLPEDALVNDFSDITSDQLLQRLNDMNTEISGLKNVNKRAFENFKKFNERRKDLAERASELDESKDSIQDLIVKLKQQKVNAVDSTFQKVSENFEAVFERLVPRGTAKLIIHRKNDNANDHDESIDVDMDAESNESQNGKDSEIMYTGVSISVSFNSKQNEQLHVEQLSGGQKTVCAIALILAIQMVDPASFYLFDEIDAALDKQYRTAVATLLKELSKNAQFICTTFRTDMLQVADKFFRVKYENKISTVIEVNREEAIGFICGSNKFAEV

acetylated Smc3(R1222C) = molecular target: T2, acetylated Smc3(R1222C) (S. cerevisiae, UniProt P47037 1-1230, R1222C, acetylated, residues not given)
T2 sequence (looked up): T1 sequence (looked up)

Smc3(K160C) = molecular target: T3, Smc3(K160C) (S. cerevisiae, UniProt P47037 1-1230, K160C)
T3 sequence (looked up): T1 sequence (looked up) with K160C, C1222R

acetylated Smc3(K160C) = molecular target: T4, acetylated Smc3(K160C) (S. cerevisiae, UniProt P47037 1-1230, K160C, acetylated, residues not given)
T4 sequence (looked up): T1 sequence (looked up) with K160C, C1222R

cross-linking efficiency (Smc3(R1222C)): 41%
cross-linking efficiency (acetylated Smc3(R1222C)): 3%
B1: Smc1(N1192C)-HA6 (natural protein, S. cerevisiae, UniProt P32908 1-1225, looked up)
chain: MGRLVGLELSNFKSYRGVTKVGFGESNFTSIIGPNGSGKSNMMDAISFVLGVRSNHLRSNILKDLIYRGVLNDENSDDYDNEGAASSNPQSAYVKAFYQKGNKLVELMRIISRNGDTSYKIDGKTVSYKDYSIFLENENILIKAKNFLVFQGDVEQIAAQSPVELSRMFEEVSGSIQYKKEYEELKEKIEKLSKSATESIKNRRRIHGELKTYKEGINKNEEYRKQLDKKNELQKFQALWQLYHLEQQKEELTDKLSALNSEISSLKGKINNEMKSLQRSKSSFVKESAVISKQKSKLDYIFKDKEKLVSDLRLIKVPQQAAGKRISHIEKRIESLQKDLQRQKTYVERFETQLKVVTRSKEAFEEEIKQSARNYDKFKLNENDLKTYNCLHEKYLTEGGSILEEKIAVLNNDKREIQEELERFNKRADISKRRITEELSITGEKLDTQLNDLRVSLNEKNALHTERLHELKKLQSDIESANNQEYDLNFKLRETLVKIDDLSANQRETMKERKLRENIAMLKRFFPGVKGLVHDLCHPKKEKYGLAVSTILGKNFDSVIVENLTVAQECIAFLKKQRAGTASFIPLDTIETELPTLSLPDSQDYILSINAIDYEPEYEKAMQYVCGDSIICNTLNIAKDLKWKKGIRGKLVTIEGALIHKAGLMTGGISGDANNRWDKEEYQSLMSLKDKLLIQIDELSNGQRSNSIRAREVENSVSLLNSDIANLRTQVTQQKRSLDENRLEIKYHNDLIEKEIQPKITELKKKLDDLENTKDNLVKEKEALQNNIFKEFTSKIGFTIKEYENHSGELMRQQSKELQQLQKQILTVENKLQFETDRLSTTQRRYEKAQKDLENAQVEMKSLEEQEYAIEMKIGSIESKLEEHKNHLDELQKKFVTKQSELNSSEDILEDMNSNLQVLKRERDGIKEDIEKFDLERVTALKNCKISNINIPISSETTIDDLPISSTDNEAITISNSIDINYKGLPKKYKENNTDSARKELEQKIHEVEEILNELQPNARALERYDEAEGRFEVINNETEQLKAEEKKILNQFLKIKKKRKELFEKTFDYVSDHLDAIYRELTKNPNSNVELAGGNASLTIEDEDEPFNAGIKYHATPPLKRFKDMEYLSGGEKTVAALALLFAINSYQPSPFFVLDEVDAALDITNVQRIAAYIRRHRNPDLQFIVISLKCTMFEKSDALVGVYRQQQENSSKIITLDLSNYAE

cross-linking efficiency (Smc3(K160C)): 7%
cross-linking efficiency (acetylated Smc3(K160C)): 37%
B2: Smc1(S161C)-HA6 (natural protein, S. cerevisiae, UniProt P32908 1-1225, looked up)
chain: B1 chain with S161C, C1192N
